Results as given in US20110076723A1, “ANTIBODY-PEPTIDE FUSED SYNERGIBODY” (SAMSUNG ELECTRONICS CO., LTD., priority 2008, published 2011).

T1: recombinant VEGFR-2 protein (water soluble extracellular site of human VEGFR-2 with Fc of human IgG1 connected thereto, R&D Systems) (human), P35968
T1 chain: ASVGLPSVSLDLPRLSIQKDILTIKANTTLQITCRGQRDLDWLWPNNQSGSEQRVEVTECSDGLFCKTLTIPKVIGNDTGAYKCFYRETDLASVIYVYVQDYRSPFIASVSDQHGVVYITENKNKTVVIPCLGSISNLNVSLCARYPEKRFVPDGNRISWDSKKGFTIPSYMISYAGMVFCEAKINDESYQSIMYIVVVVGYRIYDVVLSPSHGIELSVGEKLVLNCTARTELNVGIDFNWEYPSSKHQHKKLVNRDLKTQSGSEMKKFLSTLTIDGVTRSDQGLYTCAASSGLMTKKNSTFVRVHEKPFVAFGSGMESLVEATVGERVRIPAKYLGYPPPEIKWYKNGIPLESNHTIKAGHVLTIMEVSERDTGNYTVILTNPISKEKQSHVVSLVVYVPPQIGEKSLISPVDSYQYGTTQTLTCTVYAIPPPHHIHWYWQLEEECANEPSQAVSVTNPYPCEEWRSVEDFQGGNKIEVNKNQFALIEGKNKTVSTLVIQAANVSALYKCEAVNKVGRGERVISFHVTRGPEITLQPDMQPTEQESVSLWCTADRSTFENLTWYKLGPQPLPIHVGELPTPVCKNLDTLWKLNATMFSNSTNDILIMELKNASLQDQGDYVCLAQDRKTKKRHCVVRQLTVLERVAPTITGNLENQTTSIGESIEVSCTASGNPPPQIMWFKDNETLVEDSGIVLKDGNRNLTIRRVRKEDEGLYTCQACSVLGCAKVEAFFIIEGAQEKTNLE

T2: recombinant hAng-2 (Homo sapiens, UniProt O15123)
T2 construct: His tag; purchased R&D Systems
T2 sequence (O15123 19-496): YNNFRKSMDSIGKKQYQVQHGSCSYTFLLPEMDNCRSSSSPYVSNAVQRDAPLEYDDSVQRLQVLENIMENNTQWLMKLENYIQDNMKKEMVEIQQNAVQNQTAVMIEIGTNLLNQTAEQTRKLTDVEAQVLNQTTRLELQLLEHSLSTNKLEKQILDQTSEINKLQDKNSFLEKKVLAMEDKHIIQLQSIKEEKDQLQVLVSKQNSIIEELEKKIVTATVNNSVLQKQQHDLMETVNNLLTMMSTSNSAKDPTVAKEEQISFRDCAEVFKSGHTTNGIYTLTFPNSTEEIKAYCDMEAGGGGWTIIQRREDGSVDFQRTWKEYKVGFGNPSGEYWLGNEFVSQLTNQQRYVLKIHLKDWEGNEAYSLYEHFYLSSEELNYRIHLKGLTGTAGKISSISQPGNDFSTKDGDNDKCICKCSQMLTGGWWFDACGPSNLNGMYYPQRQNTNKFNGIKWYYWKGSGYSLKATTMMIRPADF

T3: recombinant hAng-2 (recombinant protein with His tag attached to human Ang-2; R&D Systems) (human, UniProt O15123 19-496)
T3 construct: also called angiopoietin-2; ANGPT2
T3 sequence (looked up): T2 sequence (O15123 19-496)

B1: Syn-Ang-VEGFR-20 (other)
heavy (part 1 of 2): QVQLQQSGAELARPGASVKLSCKASGYTFTDYYINWAKQRTGQGLEWIGEIYPGSGDTYYNEKFKGKATLTADKSSSTAYMQLSSLTSEDSAVYFCARYGYKGVYFDYWGQSTTLTVSS
heavy (part 2 of 2): PGSQGYCHLNMRYQWICDSE
light: ENVLTQSPAIMAASLGQKVTMTCSASSSVSSSYLHWYQQKSGASPKPLIHRTSNLASGVPARFSGSGSGTSYSLTISSVEAEDDATYYCQQWSGYPFTFGAGTKLELK
notes: Chimeric (human IgG1) SAITAng-2-4 with the peptide at the C-terminus of the heavy chain; also called SAITAng-2-4 x DTN11VEGFR-2-5; not shown: human IgG1 heavy chain constant region with Fc region, from the vector; human light chain constant region, printed as 'constant region of human IgG1'
B2: Syn-Ang-VEGFR-19 (other)
heavy (part 1 of 2): B1 heavy (part 1 of 2)
heavy (part 2 of 2): TGSGRMCDGSGPPTNCWFT
light: B1 light
notes: Chimeric (human IgG1) SAITAng-2-4 with the peptide at the C-terminus of the heavy chain; also called SAITAng-2-4 x DTN10VEGFR-2-4; not shown: human IgG1 heavy chain constant region with Fc region, from the vector; human light chain constant region, printed as 'constant region of human IgG1'
B3: Syn-Ang-VEGFR-18 (other)
heavy (part 1 of 2): B1 heavy (part 1 of 2)
heavy (part 2 of 2): EAGAYWCKAWGLSPCLVT
light: B1 light
notes: Chimeric (human IgG1) SAITAng-2-4 with the peptide at the C-terminus of the heavy chain; also called SAITAng-2-4 x DTN9VEGFR-2-3; not shown: human IgG1 heavy chain constant region with Fc region, from the vector; human light chain constant region, printed as 'constant region of human IgG1'
B4: DTN11VEGFR-2-5 (peptide)
peptide: PGSQGYCHLNMRYQWICDSE
modifications: not checked
B5: DTN6VEGFR-2-1 (peptide)
peptide: TGSDDLCYTFPCMHY
modifications: not checked
B6: DTN9VEGFR-2-3 (peptide)
peptide: EAGAYWCKAWGLSPCLVT
modifications: not checked
B7: DTN10VEGFR-2-4 (peptide)
peptide: TGSGRMCDGSGPPTNCWFT
modifications: not checked
B8: DTN8VEGFR-2-2 (peptide)
peptide: EAGKETCGYEWQYCPRP
modifications: not checked
B9: SAITAng-2-2 (antibody, V domains shown)
VH: QVQLQQSGPELVKPGASVKMSCKASGYTFTDYVISWVKQRTGQGLEWIGEIYPGSGSTYYNEKFKGKASLTADKSSNTAYMQLSSLTSADSAVYFCVRSRGDYYAMDYWGQGTSVTVSS
VL: DIQMTQSPSSLSASLGGKVTITCKASQDINNYITWYQHKPGKGPRLLIHYTSTLQPGIPSRFSGSGSGRDYSFSISNLEPEDIATYYCLQYDNLLTFGGGTKLEIK
notes: Mouse monoclonal anti-Ang-2 antibody purified from hybridoma culture
B10: SAITAng-2-4 (antibody, V domains shown)
VH: B1 heavy (part 1 of 2)
VL: B1 light
notes: as for B9
B11: SAITAng-2-3 (antibody, V domains shown)
VH: DVQLVESGGGLVQPGGSRKLSCAASGFTFSSFGMHWVRQAPEKGLEWVAYISSDSSTIYYADTVKGRFTISRDNPKNTLFLQMTSLRSEDTAMYYCAREGGYDDYYAMDYWGQGTSVTVSS
VL: DIQMTQSPASQSASLGESVTITCLASQTIGTWLAWYQQKPGKSPQLLIYAATSLADGVPSRFSGSGSGTKFSFKISSLQAEDFVSYYCQQLYSIPLTFGGGTKLEIK
notes: as for B9

Target: T4, recombinant VEGFR-2 protein (water soluble extracellular site of human VEGFR-2 with Fc of human IgG1 … (human, UniProt P35968 20-764))
T4 construct: extracellular domain; Bought; not shown: Fc of human IgG1
Assay: competitive ELISA; synergibody titrated with 1 nM VEGFR-2 on coated VEGF 165
Settings: not given
Description: Competitive ELISA is performed using the peptides synthesized above in Section 6A in order to assess the molecular interaction of the binders. […] Then the plate is washed five times with PBS containing 0.1% Tween-20, and blocked at room temperature for two hours with PBS containing 5% BSA. For VEGF:VEGFR-2 neutralization ELISA, each of the peptides synthesized in Section 6A above are diluted to one-fourth each time from 100 nM with PBS containing 1 nM VEGFR-2 and 1% BSA, and adjusted to 6.1 pM. 100 μl of peptide/VEGFR-2 solution is added to each well and the plate is left to react at room temperature for two hours. Subsequently, it is washed five times with PBS containing 0.1% Tween-20, mouse anti-VEGFR-2 antibodies (R&D Systems) is diluted to about 1:3,000 with PBS containing 1% BSA, and left to react at room temperature for one hour. Then 100 μl of goat anti-mouse-IgG-HRP (Pierce) diluted to about 1:10,000 with PBS containing 1% BSA is added to each well of the plate, left to react at room temperature for one hour, and washed five times with PBS containing 0.1% Tween-20. Lastly, 100 μl of TMB substrate (SIGMA) is added to each well of the plate to induce color reaction. The reaction is stopped by adding 50 μl of 5N H₂SO₄ solution, and the OD₄₅₀ value is read on a plate reader (Molecular Devices). Through the foregoing, the IC₅₀ value for the VEGF:VEGFR-2 binding capacity is obtained.
The method in Example 2, Section 6B above is used, except that, in the present example, each fused protein synergibodies are diluted from 100 nM to one-fourth each time with PBS containing 1% BSA and 1nM VEGFR-2 and adjusted to 6.1 pM for VEGF:VEGF-2 neutralization ELISA.

IC50 | Molecule
1.38 nM | B1
1.31 nM | B2
1.65 nM | B3

Target: T1, recombinant VEGFR-2 protein (water …)
Assay: competitive ELISA; peptide titrated with 1 nM VEGFR-2 on coated VEGF 165
Settings: not given

IC50 | Molecule
50.7 nM | B4
56.7 nM | B5
61.9 nM | B6
46.9 nM | B7
49.5 nM | B8

Target: T2, recombinant hAng-2
Assay: Affinity to Ang-2 antigen by surface plasmon resonance (BIAcore T100)
Assay type: binding
Settings: SPR, hAng-2 on CM5 chip
Description: (§1) The SPR method using BIAcore T100 (GE Healthcare) is used to accurately measure the affinity to the Ang-2 antigens. 20 μg/ml recombinant hAng-2 (R&D Systems) is fixed on a sensor chip CM5 (GE Healthcare) using pH4.5 acetate solution and amine coupling kit (GE Healthcare). The antibodies obtained in Section 2 above are diluted to eight different concentrations down to 0.78125 nM by diluting to ½ each time starting from 100 nM. Then the antigen/antibody affinity is measured by causing the antigens to repeatedly bind and disassociate with the antibodies fixed on the sensor chip (using pH2.2 glycine-HCl solution).

Off Rate | On rate | Molecule
0.0004769 s⁻¹ | 433200 M⁻¹ s⁻¹ | B9
0.0004769 s⁻¹ | 512100 M⁻¹ s⁻¹ | B10
0.0003023 s⁻¹ | 501200 M⁻¹ s⁻¹ | B11

Target: T3, recombinant hAng-2 (recombinant protein …)
Assay: SPR, BIAcore T100; hAng-2 amine-coupled on CM5, antibody 100 to 0.78125 nM
Settings: not given
Description: as §1

Kd | koff | kon | Molecule
1.1 nM | 0.000477 s⁻¹ | 433000 M⁻¹ s⁻¹ | B9
0.931 nM | 0.000477 s⁻¹ | 512000 M⁻¹ s⁻¹ | B10
0.603 nM | 0.000302 s⁻¹ | 501000 M⁻¹ s⁻¹ | B11

Target: T3, recombinant hAng-2 (recombinant protein …)
Assay: competitive ELISA; synergibody titrated with 1 nM hAng-2 (His) on coated hTie2-Fc
Settings: not given
Description: (§2) A competitive ELISA is performed to assess the molecular interaction of the binders. A 96-well MaxiSorp™ flat-bottom plate (Nunc) is coated with hTie2-Fc (R&D Systems), which is a fused protein including the water-soluble extracellular portion of human Tie-2 and Fc of human IgG₁ dissolved in DMEM culture solution containing 50 μg/ml bovine serum albumin (BSA). The concentration of hTie2-Fc used as a coating material is equivalent to 75% of its maximum binding concentration with 1 nM of recombinant hAng-2 (recombinant protein with His tag attached to human Ang-2; R&D Systems). Then the plate is washed five times with Phosphate Buffer Saline (PBS) containing 0.1% Tween-20 and blocked at room temperature for two hours with PBS containing 5% BSA. Each anti-Ang-2 antibodies are diluted from 100 nM by one-fourth each time with PBS containing 1% BSA and 1 nM hAng-2 and adjusted to 6.1 pM for Ang-2:Tie-2 neutralization ELISA. 100 μl of antibody/hAng-2 solutions are placed in each corresponding well and left to react at room temperature for two hours. Then the wells are washed five times with PBS containing 0.1% Tween-20, and the anti-His antibodies (GE Healthcare) are diluted to about 1:3,000 with PBS containing 1% BSA and left to react at room temperature for one hour. Afterwards, 100 μl of goat anti-mouse-IgG-HRP (Pierce) diluted with PBS containing 1% BSA to about 1:10,000 is added to each well of the plate, left to react at room temperature for one hour, and washed with PBS containing 0.1% Tween-20 five times. Lastly, 100 μl of TMB substrate (SIGMA) is added to each well of the plate to induce color reaction, and the reaction is stopped by adding 50 μl of 5N H₂SO₄ solution. The OD₄₅₀ value is read on a plate reader (Molecular Devices).
The method described in Example 1, Section 3 above is used, except that, in the present example, each fused protein synergibodies are diluted from 100 nM to one-fourth each time with PBS containing 1% BSA and 1 nM hAng-2 and adjusted to 6.1 pM for Ang-2:Tie-2 neutralization ELISA.

IC50 | Molecule
1.35 nM | B1
1.28 nM | B2
1.39 nM | B3

Target: T3, recombinant hAng-2 (recombinant protein …)
Assay: competitive ELISA; antibody titrated with 1 nM hAng-2 (His) on coated hTie2-Fc
Settings: not given
Description: as §2

IC50 | Molecule
1.86 nM | B9
1.01 nM | B10
0.822 nM | B11
